Test results published in the supplement of paper PMC10567573.

B1: KCNA4 (parent)
chain: YQSGGRLKRPVNVPFDIFTEEVKF
B2: OAS1 (parent)
chain: LQLGEGVEFDVLPAFDALGQLTGG

Variants of: B1
Assay: protein stability index of a GFP-peptide fusion (GPS, HEK-293T) (PSI 1-6); higher = more stable
Details: c terminus: a fixed tail appended
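Further: lentivirally expressed fusions sorted by FACS into six bins by GFP to DsRed ratio, PSI derived from sequencing read proportions per bin multiplied by bin number.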

Row | Variant | protein stability index
1 | YLSGGRLKRPVNVPFDIFTEEVKF [Q2L] | 1.64
2 | YSSGGRLKRPVNVPFDIFTEEVKF [Q2S] | 2.58
3 | YRSGGRLKRPVNVPFDIFTEEVKF [Q2R] | 2.22
4 | YMSGGRLKRPVNVPFDIFTEEVKF [Q2M] | 2.56
5 | YYSGGRLKRPVNVPFDIFTEEVKF [Q2Y] | 1.55
6 | YCSGGRLKRPVNVPFDIFTEEVKF [Q2C] | 2.63
7 | YFSGGRLKRPVNVPFDIFTEEVKF [Q2F] | 2.19
8 | YESGGRLKRPVNVPFDIFTEEVKF [Q2E] | 2.73
9 | YPSGGRLKRPVNVPFDIFTEEVKF [Q2P] | 2
10 | YNSGGRLKRPVNVPFDIFTEEVKF [Q2N] | 2.12
11 | YWSGGRLKRPVNVPFDIFTEEVKF [Q2W] | 1.48
12 | YDSGGRLKRPVNVPFDIFTEEVKF [Q2D] | 2.97
13 | YKSGGRLKRPVNVPFDIFTEEVKF [Q2K] | 2.14
14 | YVSGGRLKRPVNVPFDIFTEEVKF [Q2V] | 3.32
15 | YTSGGRLKRPVNVPFDIFTEEVKF [Q2T] | 1.62
16 | YISGGRLKRPVNVPFDIFTEEVKF [Q2I] | 1.93
17 | YGSGGRLKRPVNVPFDIFTEEVKF [Q2G] | 1.77
18 | YQIGGRLKRPVNVPFDIFTEEVKF [S3I] | 1.63
19 | YQAGGRLKRPVNVPFDIFTEEVKF [S3A] | 1.7
20 | YQKGGRLKRPVNVPFDIFTEEVKF [S3K] | 2.27
21 | YQNGGRLKRPVNVPFDIFTEEVKF [S3N] | 1.98
22 | YQGGGRLKRPVNVPFDIFTEEVKF [S3G] | 2.05

Row | Variant | protein stability index
23 | YQCGGRLKRPVNVPFDIFTEEVKF [S3C] | 1.69
24 | YQRGGRLKRPVNVPFDIFTEEVKF [S3R] | 1.37
25 | YQWGGRLKRPVNVPFDIFTEEVKF [S3W] | 2.23
26 | YQEGGRLKRPVNVPFDIFTEEVKF [S3E] | 2.57
27 | YQLGGRLKRPVNVPFDIFTEEVKF [S3L] | 2.13
28 | YQTGGRLKRPVNVPFDIFTEEVKF [S3T] | 2.32
29 | YQHGGRLKRPVNVPFDIFTEEVKF [S3H] | 2.5
30 | YQFGGRLKRPVNVPFDIFTEEVKF [S3F] | 1.51
31 | YQPGGRLKRPVNVPFDIFTEEVKF [S3P] | 1.7
32 | YQYGGRLKRPVNVPFDIFTEEVKF [S3Y] | 1.59
33 | YQDGGRLKRPVNVPFDIFTEEVKF [S3D] | 3.3
34 | YQVGGRLKRPVNVPFDIFTEEVKF [S3V] | 1.75
35 | YQSGQRLKRPVNVPFDIFTEEVKF [G5Q] | 2.08
36 | YQSGTRLKRPVNVPFDIFTEEVKF [G5T] | 2.7
37 | YQSGKRLKRPVNVPFDIFTEEVKF [G5K] | 2.14
38 | YQSGSRLKRPVNVPFDIFTEEVKF [G5S] | 1.81
39 | YQSGPRLKRPVNVPFDIFTEEVKF [G5P] | 2.53
40 | YQSGHRLKRPVNVPFDIFTEEVKF [G5H] | 3.03
41 | YQSGRRLKRPVNVPFDIFTEEVKF [G5R] | 1.8
42 | YQSGFRLKRPVNVPFDIFTEEVKF [G5F] | 1.6
43 | YQSGCRLKRPVNVPFDIFTEEVKF [G5C] | 1.73
44 | YQSGIRLKRPVNVPFDIFTEEVKF [G5I] | 1.72

Row | Variant | protein stability index
45 | YQSGARLKRPVNVPFDIFTEEVKF [G5A] | 2.32
46 | YQSGNRLKRPVNVPFDIFTEEVKF [G5N] | 1.94
47 | YQSGLRLKRPVNVPFDIFTEEVKF [G5L] | 1.49
48 | YQSGDRLKRPVNVPFDIFTEEVKF [G5D] | 2.11
49 | YQSGMRLKRPVNVPFDIFTEEVKF [G5M] | 1.77
50 | YQSGERLKRPVNVPFDIFTEEVKF [G5E] | 2.29
51 | YQSRGRLKRPVNVPFDIFTEEVKF [G4R] | 2.14
52 | YQSEGRLKRPVNVPFDIFTEEVKF [G4E] | 1.99
53 | YQSFGRLKRPVNVPFDIFTEEVKF [G4F] | 1.71
54 | YQSNGRLKRPVNVPFDIFTEEVKF [G4N] | 1.73
55 | YQSKGRLKRPVNVPFDIFTEEVKF [G4K] | 2.12
56 | YQSMGRLKRPVNVPFDIFTEEVKF [G4M] | 2.08
57 | YQSVGRLKRPVNVPFDIFTEEVKF [G4V] | 1.78
58 | YQSAGRLKRPVNVPFDIFTEEVKF [G4A] | 2.09
59 | YQSHGRLKRPVNVPFDIFTEEVKF [G4H] | 2.33
60 | YQSIGRLKRPVNVPFDIFTEEVKF [G4I] | 2.36
61 | YQSYGRLKRPVNVPFDIFTEEVKF [G4Y] | 1.27
62 | YQSWGRLKRPVNVPFDIFTEEVKF [G4W] | 2.56
63 | YQSLGRLKRPVNVPFDIFTEEVKF [G4L] | 2.77
64 | YQSTGRLKRPVNVPFDIFTEEVKF [G4T] | 2.2
65 | YQSCGRLKRPVNVPFDIFTEEVKF [G4C] | 1.74
66 | YQSPGRLKRPVNVPFDIFTEEVKF [G4P] | 3.26

Row | Variant | protein stability index
67 | YQSDGRLKRPVNVPFDIFTEEVKF [G4D] | 1.96
68 | YQSSGRLKRPVNVPFDIFTEEVKF [G4S] | 1.99
69 | IQSGGRLKRPVNVPFDIFTEEVKF [Y1I] | 1.93
70 | RQSGGRLKRPVNVPFDIFTEEVKF [Y1R] | 3.12
71 | LQSGGRLKRPVNVPFDIFTEEVKF [Y1L] | 3.97
72 | TQSGGRLKRPVNVPFDIFTEEVKF [Y1T] | 2.88
73 | GQSGGRLKRPVNVPFDIFTEEVKF [Y1G] | 3.48
74 | HQSGGRLKRPVNVPFDIFTEEVKF [Y1H] | 2.88
75 | MQSGGRLKRPVNVPFDIFTEEVKF [Y1M] | 2.69
76 | KQSGGRLKRPVNVPFDIFTEEVKF [Y1K] | 2.88
77 | PQSGGRLKRPVNVPFDIFTEEVKF [Y1P] | 2.29
78 | QQSGGRLKRPVNVPFDIFTEEVKF [Y1Q] | 3.33
79 | EQSGGRLKRPVNVPFDIFTEEVKF [Y1E] | 3.08
80 | SQSGGRLKRPVNVPFDIFTEEVKF [Y1S] | 3
81 | NQSGGRLKRPVNVPFDIFTEEVKF [Y1N] | 3.04
82 | DQSGGRLKRPVNVPFDIFTEEVKF [Y1D] | 3.12
83 | CQSGGRLKRPVNVPFDIFTEEVKF [Y1C] | 2.81
84 | AQSGGRLKRPVNVPFDIFTEEVKF [Y1A] | 2.82
85 | FQSGGRLKRPVNVPFDIFTEEVKF [Y1F] | 1.6

Variants of: B2
Assay: as above
Details: c terminus: a fixed tail appended

Row | Variant | protein stability index
86 | LQLGEGVEFDVLPAFDALGQLTFG [G23F] | 1.51
87 | LQLGEGVEFDVLPAFDALGQLTDG [G23D] | 2.13
88 | LQLGEGVEFDVLPAFDALGQLTSG [G23S] | 1.74
89 | LQLGEGVEFDVLPAFDALGQLTTG [G23T] | 1.67
90 | LQLGEGVEFDVLPAFDALGQLTYG [G23Y] | 1.34
91 | LQLGEGVEFDVLPAFDALGQLTPG [G23P] | 2.03
92 | LQLGEGVEFDVLPAFDALGQLTVG [G23V] | 2.33
93 | LQLGEGVEFDVLPAFDALGQLTCG [G23C] | 1.52
94 | LQLGEGVEFDVLPAFDALGQLTAG [G23A] | 2.33
